Results from patent publication US20120316071A1 (published 2012).

B1: Fab VH1-46_IGHD3-10*01_IGHJ4*01 & B3_IGKJ1*01 (Fab, V domains shown)
VH: QVQLVQSGAEVKKPGASVKVSCKASGYTFTSYYMHWVRQAPGQGLEWMGIINPSGGSTSYAQKFQGRVTMTRDTSTSTVYMELSSLRSEDTAVYYCAREYYYGSGSYYNDYFDYWGQGTLVTVSS
VL: not shown
notes: Tested as a Fab made in E. coli; VH was cloned into Plasmid A (CH1 constant region, His6 and Flag tags); The kappa VL was cloned into Plasmid C (kappa CL)
B2: Fab VH1-46_IGHD6-13*01_IGHJ4*01 & B3_IGKJ1*01 (Fab, V domains shown)
VH: QVQLVQSGAEVKKPGASVKVSCKASGYTFTSYYMHWVRQAPGQGLEWMGIINPSGGSTSYAQKFQGRVTMTRDTSTSTVYMELSSLRSEDTAVYYCAREGYSSSWYDYFDYWGQGTLVTVSS
VL: not shown
notes: Germline Fab made in E. coli; VH was cloned into Plasmid A (CH1, His6 and Flag tags) and the kappa VL into Plasmid C (kappa CL)

What was measured:
[1] = molecular target: T1, rHuman EGF R/Fc Chimera, CF (R&D Systems Cat#344-ER) (human, UniProt P00533 25-645); assay: MSD multispot ECL, antigen spotted on plate, Fab 352.5 nM; blank spot 494
T1 construct: Bought from R&D Systems; also called epidermal growth factor receptor (EGF R); not shown: Fc of the bought chimera

[2] = molecular target: T2, rHuman Notch-1/Fc Chimera, CF (R&D Systems Cat#3647-TK) (human, UniProt P46531 19-526); assay: as above
T2 construct: Bought from R&D Systems; not shown: Fc of the bought chimera

[3] = molecular target: T3, rHuman HGF R/c-MET/Fc Chimera, CF (R&D Systems Cat#358-MT/CF) (human, UniProt P08581 25-932); assay: as above
T3 construct: Bought from R&D Systems; also called HGF R/Fc; hepatocyte growth factor receptor (HGF R/c-Met); not shown: Fc of the bought chimera

[4] = molecular target: T4, rHuman IGF-1 sR, (IGF-1 sR), CF (R&D Systems Cat#391-GR) (human, UniProt P08069 31-932); assay: as above
T4 construct: Bought from R&D Systems and called a soluble receptor; also called insulin-like growth factor-1 soluble receptor

[5] = molecular target: T5, Recombinant Human DLL4 (R&D Systems Cat#1506-D4/CF) (human, UniProt Q9NR61 27-524); assay: as above
T5 construct: Bought from R&D Systems; also called rHuman DLL4; delta-like protein 4

[6] = molecular target: T6, rHuman Erythropoietin R/Fc Chimera, CF (R&D Systems Cat#963-ER) (human, UniProt P19235 25-250); assay: as above
T6 construct: Bought from R&D Systems; also called EPO R/Fc; Epo R/Fc chimera; not shown: Fc of the bought chimera
T6 sequence (looked up): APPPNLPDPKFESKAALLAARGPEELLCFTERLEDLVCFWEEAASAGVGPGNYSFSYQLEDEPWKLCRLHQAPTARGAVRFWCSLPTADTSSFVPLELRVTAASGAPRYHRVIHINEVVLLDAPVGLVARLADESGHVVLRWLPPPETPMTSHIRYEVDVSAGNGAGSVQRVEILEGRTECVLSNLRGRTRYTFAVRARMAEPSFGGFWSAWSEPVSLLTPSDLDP

[7] = molecular target: T7, rHuman CD44/Fc Chimera, CF (R&D Systems Cat#3660-CD) (human, UniProt P16070 21-220); assay: as above
T7 construct: Bought from R&D Systems; not shown: Fc of the bought chimera

[8] = molecular target: T8, rHuman ErbB2/Fc Chimera, CF (R&D Systems Cat#1129-ER) (human, UniProt P04626 23-652); assay: as above
T8 construct: Bought from R&D Systems; also called human epidermal growth factor 2 receptor (ErbB2); not shown: Fc of the bought chimera

[9] = molecular target: T9, rHuman P-Cadherin/Fc Chimera, CF (R&D Systems Cat#861-PC) (human, UniProt P22223 108-654); assay: as above
T9 construct: Bought from R&D Systems; not shown: Fc of the bought chimera

[10] = molecular target: T10, rHuman IGF-1 sR, CF (R&D Systems Cat#391-GR) (human, UniProt P08069 31-932); assay: Multispot ECL (MSD), antigen spotted on plate, Fab 125 nM; blank spot 403
T10 construct: Bought recombinant soluble receptor; also called insulin-like growth factor-1 soluble receptor

[11] = molecular target: T11, rHuman Notch-1/Fc Chimera, CF (R&D Systems Cat#3647-TK) (human, UniProt P46531 19-526); assay: as above
T11 construct: Bought recombinant protein; Fc part of the bought chimera not given

[12] = molecular target: T12, rHuman Erythropoietin R/Fc Chimera, CF (R&D Systems Cat#963-ER) (human, UniProt P19235 25-250); assay: as above
T12 construct: Bought recombinant protein; also called EPO R/Fc; Epo R; Fc part of the bought chimera not given
T12 sequence (looked up): T6 sequence (looked up)

[13] = molecular target: T13, Recombinant Human DLL4 (R&D Systems Cat#1506-D4/CF) (human, UniProt Q9NR61 27-524); assay: as above
T13 construct: Bought recombinant protein; also called rHuman DLL4; delta-like protein 4

[14] = molecular target: T10, rHuman IGF-1 sR, CF (R&D Systems …); assay: Multispot ECL (MSD), antigen spotted on plate, Fab 1000 nM; blank spot 1133
[15] = molecular target: T11, rHuman Notch-1/Fc Chimera, CF (R&D …); assay: as above
[16] = molecular target: T10, rHuman IGF-1 sR, CF (R&D Systems …); assay: Multispot ECL (MSD), antigen spotted on plate, Fab 62.5 nM; blank spot 268
[17] = molecular target: T11, rHuman Notch-1/Fc Chimera, CF (R&D …); assay: as above
[18] = molecular target: T12, rHuman Erythropoietin R/Fc Chimera, CF …; assay: as above
[19] = molecular target: T13, Recombinant Human DLL4 (R&D Systems …); assay: as above

T3 sequence (P08581 25-932, change not shown): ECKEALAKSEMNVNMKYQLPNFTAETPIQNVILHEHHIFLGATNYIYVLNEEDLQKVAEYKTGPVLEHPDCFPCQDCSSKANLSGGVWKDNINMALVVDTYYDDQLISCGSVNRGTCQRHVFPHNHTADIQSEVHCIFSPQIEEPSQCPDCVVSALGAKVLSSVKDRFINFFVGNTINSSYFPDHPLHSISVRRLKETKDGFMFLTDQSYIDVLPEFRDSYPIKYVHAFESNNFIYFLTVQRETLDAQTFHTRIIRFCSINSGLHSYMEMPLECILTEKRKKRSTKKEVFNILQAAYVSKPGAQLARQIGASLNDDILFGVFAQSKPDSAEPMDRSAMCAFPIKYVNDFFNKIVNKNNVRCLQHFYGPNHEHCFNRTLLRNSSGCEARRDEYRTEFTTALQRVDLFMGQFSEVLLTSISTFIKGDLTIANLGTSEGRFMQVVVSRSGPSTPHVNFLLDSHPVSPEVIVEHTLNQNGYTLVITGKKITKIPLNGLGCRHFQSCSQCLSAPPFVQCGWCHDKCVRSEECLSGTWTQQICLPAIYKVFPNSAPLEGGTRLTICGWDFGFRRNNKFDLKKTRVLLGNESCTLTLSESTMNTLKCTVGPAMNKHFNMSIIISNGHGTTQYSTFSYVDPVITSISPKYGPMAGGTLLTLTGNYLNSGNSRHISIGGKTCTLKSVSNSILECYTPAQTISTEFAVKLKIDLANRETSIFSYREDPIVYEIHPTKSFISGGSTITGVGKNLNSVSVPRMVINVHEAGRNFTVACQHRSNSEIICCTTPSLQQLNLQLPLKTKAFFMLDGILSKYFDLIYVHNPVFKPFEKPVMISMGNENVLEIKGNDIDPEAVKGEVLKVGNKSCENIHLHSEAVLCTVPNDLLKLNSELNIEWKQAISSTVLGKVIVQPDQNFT

| Binder | ECL signal [1] | ECL signal [2] | ECL signal [3] | ECL signal [4] | ECL signal [5] | ECL signal [6] | ECL signal [7] | ECL signal [8] | ECL signal [9] | ECL signal [10] | ECL signal [11] | ECL signal [12] | ECL signal [13] | ECL signal [14] | ECL signal [15] | ECL signal [16] | ECL signal [17] | ECL signal [18] | ECL signal [19] |
| --- | --- | --- | --- | --- | --- | --- | --- | --- | --- | --- | --- | --- | --- | --- | --- | --- | --- | --- | --- |
| B1 | 769 | 715 | 606 | 528 | 660 | 4100 | 556 | 514 | 649 | – | – | – | – | – | – | – | – | – | – |
| B2 | – | – | – | – | – | – | – | – | – | 654 | 802 | 9240 | 912 | 1670 | 2270 | 491 | 536 | 7750 | 715 |
